Read-outs that look alike come from different tables or passages of the source.
Tests used:
cynomolgus-monkey IGF-1R = assay: BIACORE surface-plasmon resonance, cynomolgus-monkey IGF-1R; type: binding; settings: IgG, FIG. 15
Protocol: Binding affinities of selected antibodies to IGF-1R were determined by surface plasmon resonance measurements on a BIACORE™ 3000 instrument (BIAcore, Inc.). Human, murine, or cynomolgus-monkey IGF-1R was immobilized at a density of about 500 RU on the flow cells of a PIONEER™ CM5 sensor chip. Immobilization was achieved by random coupling through amino groups using a protocol provided by the manufacturer. Sensorgrams were recorded for binding of anti-IGF-1R Fab or IgG to these surfaces by injection of a series of solutions ranging from 500 nM to 3.1 nM and 250 nM to 0.78 nM in two-fold increments, respectively. The signal from the reference cell was subtracted from the observed sensorgram. Kinetic constants were calculated by non-linear regression analysis of the data according to a 1:1 Languir binding model using software supplied by the manufacturer.

human IGF-1R-ECD = target: T1, human IGF-1R-ECD (Homo sapiens, UniProt P08069); assay: phage-competition ELISA (phage IC50); type: binding
T1 construct: containing the extracellular domain (ECD, amino acids 1-902) tagged with 10 or 12 histidine residues at the carboxyl terminus; His10 or His12 (C); made in house; host or cells: CHO cells
Protocol: MAXISORP™ microtiter plates were coated with human IGF-1R-ECD at 5 μg/ml in PBS overnight and then blocked with CASEIN BLOCKER™ reagent (Pierce Biotechnology, Inc.). Phage from culture supernatants were incubated with serially diluted IGF-1R-ECD in PBS with 0.05% TWEEN 20™ surfactant (PBST) containing 1% bovine serum albumin (BSA) in a tissue-culture microtiter plate for 1 hour, after which 80 μl of the mixture was transferred to the target-coated wells for 15 minutes to capture unbound phage. The plate was washed with PBST, and HRP-conjugated anti-M13 (Amersham Pharmacia Biotech) was added (1:5000 in PBST containing 1% BSA) for 40 minutes. The plate was washed with PBST and developed by adding tetramethylbenzidine (TMB) substrate (Kirkegaard and Perry Laboratories, Gaithersburg, Md.). The absorbance at 450 nm was plotted as a function of target concentration in solution to determine an IC50. […] For the humanized hybridoma-derived clones, 2B4, 9F2, and 10H5, phage-Fab was used.
This assay was conducted as described in Section 1-II-A-(4) of this Example. For the YW95-phage-derived clones from the VH/VL phage library, phage-Fab-Zip was used.

[1] = target: human IGF-1R-ECD (secreted recombinant extracellular domain, amino acids 1-902, tagged with 10 or 12 histidine residues at the carboxyl terminus) (human) (UniProt P08069); assay: BIACORE surface plasmon resonance: IGF-1R immobilized on CM5 chip (about 500 RU), Fab injected 500-3.1 nM, 25 C, 1:1 Langmuir model
IGF-1R = IGF-1R (Homo sapiens, UniProt P08069); assay: antibody-induced IGF-1R down-regulation in MCF7 cells, Western blotting; type: cell-based; design: IGF-1R is normally localized at the plasma membrane of MCF7 cells; endogenous in cells; host or cells: MCF7; settings: 10 μg/ml, 1, 4, 8 or 24 hours, 10% serum
Protocol: Further exploration of the mechanism of action of anti-IGF-1R antibodies was carried out by testing the ability of the antibodies of the invention, particularly human chimeric antibodies of 2B4, 9F2, 10H5, as well as human phage antibody YW95.6, to induce IGF-1R down-regulation. MCF7 cells were treated with various antibodies (10 μg/ml) for 1, 4, 8, or 24 hours in the presence of 10% serum-containing medium. The cell lysates were harvested, separated by SDS-PAGE, and analyzed for IGF-1R levels by Western blotting using an anti-IGF-1R beta-chain antibody (Cell Signaling Technology, Inc.; Beverly, Mass., USA) or anti-beta-actin antibody.
In a separate experiment, MCF7 cells were treated with serially diluted h10H5, and the cell lysates were analyzed for IGF-1R and IR levels using anti-IGF-1R and anti-IR β-chain antibodies at 1, 2, 4, and 8 hours post-continuous treatment.

MCF7 cells = assay: cell viability assay ([…]-GLO), MCF7; type: cell-based, human; settings: for comparison of inhibitory effect on MCF7 proliferation / viability: in the presence of IGF-I
Protocol: The different cell lines were cultured in their respective culture media at 37° C. in a humidified atmosphere of 5% CO2. Subsequently, cells were detached from tissue-culture flasks using the cell-dissociation solution, TRIPLE SELECT™ solution (InVitrogen, Carlsbad, Calif., USA), and centrifuged at 1000 rpm for five minutes. Detached cells were washed once with PBS, counted, and seeded in 96-well plates (Corning, N.Y., USA) at 2000 cells per well in 100 μL of culture media. After an overnight incubation at 37° C. in a humidified atmosphere of 5% CO2, the cell-culture medium was replaced with 50 μL of starvation medium consisting of serum-free RPMI 1640™ medium without phenol red. The cells were then starved for five hours in the incubator before addition of 25 μL of each anti-IGF-1R monoclonal antibody at various dilutions in serum-free RPMI 1640™ phenol red-free media. Later, 25 μL of phenol red-free RPMI 1640™ media supplemented with 4% of fetal bovine serum (FBS) (Sigma) with or without 4 ng/ml of human recombinant IGF-I were added on top of the 50 μL of antibody. The cells were then placed at 37° C. with 5% CO2 for 5 to 6 days. At the end of the assay, cell viability was measured using the […]-GLO® kit according to the manufacturer's instructions (Promega, Madison, Wis., USA).
For the cell viability assay, MCF7 cells were seeded onto 96-well plates at 2000 cells/well and incubated overnight at 37° C. in a humidified atmosphere of 5% CO2/95% air in RPMI 1640™ medium supplemented with 10% FBS (Sigma, St. Louis, Mo.) and 1% GLUTAMAX™ reagent (Promega, Madison, Wis.). The next day cells were starved in serum-free RPMI 1640™ medium (phenol red-free) for five hours followed by addition of serially diluted human chimeric versions of 9F2, 2B4, and 10H5, as well as h10H5.vX, for one hour. Subsequently, phenol red-free PRMI 1640™ medium supplemented with FBS or IGF-I was added to reach a final concentration of 1% FBS and 1 ng/mL IGF-I. Cells were then incubated with continuous IGF-1R antibody exposure. After five days, the cell viability was then determined using a […]-GLO™ kit (Promega, Madison, Wis.) according to the manufacturer's instructions.

| Molecule | binding to human versus cyno IGF-1R (cynomolgus-monkey IGF-1R) | IGF-1R down-regulation (IGF-1R) | comparison of inhibitory effect on MCF7 proliferation / viability (MCF7 cells) | other results |
| --- | --- | --- | --- | --- |
| h9F2.vX: humanized anti-IGF-1R antibody, direct HVR graft of murine 9F2; VL SEQ ID NO:49, VH SEQ ID NO:51 (antibody, V domains shown, sequence is synthesized) VH: EVQLVESGGGLVQPGGSLRLSCAASGYTLANYGMNWVRQAPGKGLEWVGWINTNTGKPTYSDEFKGRFTISADTSKNTAYLQMNSLRAEDTAVYYCARSIYYYGSRYFNVWGQGTL VL: DIQMTQSPSSLSASVGDRVTITCRASQDINNYLTWYQQKPGKAPKLLIYYTSRLHSGVPSRFSGSGSGTDFTLTISSLQPEDFATYYCQQGNTLPWTFGQGTKVEIKR | comparable for human and cyno IGF-1R |  |  | IC50 (human IGF-1R-ECD; humanized hybridoma-derived clones displayed on phage as monovalent Fab, read-out: binding affinity (phage IC50) against IGF-1R-ECD): 60 nM |
| murine 10H5 Fab (Fab, V domains shown) VH: QVQLQQPGAELVKPGASVTLSCKASGYTFTRFWIHWVKQRPGQGLEWIGEINPSNGRTNYNENFKNKATLTVDTSSSTAYMQLSSLTSEVSVVYYCARGGRLDQWGQGTT VL: DIVMTQSQKFMSTSLGDRVSVTCKASQNVGSNVAWYQQKPGQSPEALIYSASYRYSGVPDRFTGSGSGTDFTLTISNVQSEDLAEYFCHQYNNYPYTFGGGTKVEIKR |  |  |  | Kd [1]: 22 nM |
| chimeric 10H5: human chimeric version of murine 10H5, human IgG1 (antibody, V domains shown) VH: QVQLQQPGAELVKPGASVTLSCKASGYTFTRFWIHWVKQRPGQGLEWIGEINPSNGRTNYNENFKNKATLTVDTSSSTAYMQLSSLTSEVSVVYYCARGGRLDQWGQGTT VL: DIVMTQSQKFMSTSLGDRVSVTCKASQNVGSNVAWYQQKPGQSPEALIYSASYRYSGVPDRFTGSGSGTDFTLTISNVQSEDLAEYFCHQYNNYPYTFGGGTKVEIKR | comparable for human and cyno IGF-1R | rapidly down-regulated and reached maximal reduction by eight hours | equivalent at decreasing the MCF7 cell viability |  |
| murine 2B4 Fab (Fab, V domains shown) VH: QIQLVQSGPELKKPGETVKISCKASGYNLANYGLNWVKQAPGEGLKWMGWINTNTGAPTYAEEFKGRFVFFLETSASTAYLQINNLSDEDTATYFCARSIYYYASRYFNVWGAGTS VL: DIQMTQTTSSLSASLGDKVTISCRASQDISNYLNWYQQKPDGTIKLLIYYTSRLHSGIPSRFSGSGSGTDYSLTISNLEQEDIATYFCQQGNTLPWTFGGGTKVEIKR |  |  |  | Kd [1]: 24 nM |
| chimeric 2B4: human chimeric version of murine 2B4 (antibody, V domains shown) VH: QIQLVQSGPELKKPGETVKISCKASGYNLANYGLNWVKQAPGEGLKWMGWINTNTGAPTYAEEFKGRFVFFLETSASTAYLQINNLSDEDTATYFCARSIYYYASRYFNVWGAGTS VL: DIQMTQTTSSLSASLGDKVTISCRASQDISNYLNWYQQKPDGTIKLLIYYTSRLHSGIPSRFSGSGSGTDYSLTISNLEQEDIATYFCQQGNTLPWTFGGGTKVEIKR |  | rapidly down-regulated and reached maximal reduction by eight hours | equivalent at decreasing the MCF7 cell viability |  |
| chimeric 9F2: human chimeric version of murine 9F2, human IgG1 (antibody, V domains shown) VH: QIQLVQSGPELKKPGETVKISCKASGYTLANYGMNWVKQAPGKGFKWMGWINTNTGKPTYSDEFKGRFVFSLETSASTAYLLINNLSNEDTATYFCARSIYYYGSRYFNVWGAGTT VL: DIQMTQSTSSLSASLGDRVTISCRASQDINNYLTWYQQKPDGTVKLLIYYTSRLHSGVPSRFSGSGSGTDYSLTITNLEQEDFATYFCQQGNTLPWTFGEGTKVEIKR | comparable for human and cyno IGF-1R | rapidly down-regulated and reached maximal reduction by eight hours | equivalent at decreasing the MCF7 cell viability |  |
| YW95.6: human phage antibody clone against IGF-1R; VL SEQ ID NO:67, VH SEQ ID NO:71 (antibody, V domains shown, sequence is synthesized) VH: EVQLVESGGGLVQPGGSLRLSCAASGFTFSSYAMSWVRQAPGKGLEWVSRISPSGGSTYYADSVKGRFTISADTSKNTAYLQMNSLRAEDTAVYYCAREEYYYWGAMDVWGQGTL VL: DIQMTQSPSSLSASVGDRVTITCRASQSISSYLAWYQQKPGKAPKLLIYGASSRASGVPSRFSGSGSGTDFTLTISSLQPEDFATYYCQQYYSSPLTFGQGTKVEIKR |  | rapidly down-regulated and reached maximal reduction by eight hours |  | IC50 (human IGF-1R-ECD; YW95 phage-derived clones displayed as bivalent Fab-Zip on phage, read-out: phage IC50): 20 nM; effect on the MCF7 cell viability compared to the media control (MCF7 cells; initial screen, 0.12 to 10 μg/ml): no effect |
